Measurements reported in patent US20230266324A1 (Hoffmann-La Roche, published 2023).

Biological target: T1, PD-L1 (human, UniProt Q9NZQ7 19-290)
T1 construct: whole, on cells; Endogenous PD-L1 on in vitro generated human DCs (iDCs, mDCs); also called B7-H1; B7-4
Test: confocal imaging of co-localization on the surface of human mDCs

T1 sequence (Q9NZQ7 19-290): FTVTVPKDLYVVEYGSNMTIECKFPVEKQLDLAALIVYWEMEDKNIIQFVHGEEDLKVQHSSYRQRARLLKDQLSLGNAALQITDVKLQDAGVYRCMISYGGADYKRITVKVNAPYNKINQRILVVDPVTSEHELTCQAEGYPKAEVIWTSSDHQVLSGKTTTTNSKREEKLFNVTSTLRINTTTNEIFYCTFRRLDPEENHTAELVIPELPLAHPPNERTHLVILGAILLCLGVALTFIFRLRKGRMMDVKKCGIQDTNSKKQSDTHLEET

binding result: binds
B1: CD80 (ligand, human, UniProt P33681 35-288, looked up)
chain: VIHVTKEVKEVATLSCGHNVSVEELAQTRIYWQKEKKMVLTMMSGDMNIWPEYKNRTIFDITNNLSIVILALRPSDEGTYECVVLKYEKDAFKREHLAEVTLSVKADFPTPSISDFEIPTSNIRRIICSTSGGFPEPHLSWLENGEELNAINTTVSQDPETELYAVSSKLDFNMTTNHSFMCLIKYGHLRVNQTFNWNTTKQEHFPDNLLPSWAITLISVNGIFVICCLTYCFAPRCRERRRNERLRRESVRPV
notes: whole, on cells; Endogenous CD80 on human DCs, seen by confocal imaging; also called B7-1; B7.1
